Here are results for one substance from US20220403025A1.

By pKd is commonly meant −log10 of the Kd, conventionally taken in molar units. Read a high pKd as a low Kd.

pKd: −log10 of the molar value.

The target in the assay is L1 (DV1-GV4) antigen: soluble heterodimeric γδ TCR in leucine zipper format (TRDV1/TRGV4) (human). The assay is described as follows: SPR (MASS-2), IgG captured via protein G (100 nM for TS8.2), L1 as analyte, steady-state 1:1 fit.
Chain of L1 (DV1-GV4) antigen: soluble heterodimeric γδ TCR in leucine zipper format (TRDV1/TRGV4) (human) (main, as listed by the source): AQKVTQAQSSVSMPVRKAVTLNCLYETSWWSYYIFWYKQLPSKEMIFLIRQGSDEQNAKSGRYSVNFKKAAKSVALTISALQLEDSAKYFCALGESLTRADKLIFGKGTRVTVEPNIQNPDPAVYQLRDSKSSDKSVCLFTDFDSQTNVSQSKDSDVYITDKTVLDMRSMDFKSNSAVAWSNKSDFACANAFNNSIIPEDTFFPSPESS

For “TS8.2 (commercial anti-Vδ1 antibody; Human TCR Vδ1 purified mAb, ThermoFisher TCR1730)”, the pKd was 7.36.
